What was measured:
[1] = biological target: MKK7 kinase domain (Homo sapiens) (UniProt O14733); assay: SPR; details: cited from earlier work
[2] = biological target: T1, kinase domain of human MKK7 (mitogen-activated protein kinase kinase 7) (human, UniProt O14733 120-380); assay: BLI; biotinylated GADD45 proteins immobilised on super streptavidin (SSA) biosensors (2.5 nm), Octet RED96; MKK7_KD in solution at 9-300 nM; 0.01 M HEPES pH 7.4, 0.15 M NaCl, 3 mM EDTA, 0.005% Surfactant P20, 2 mM DTT; 1:1 binding model; details: both partners purified
T1 construct: MKK7, human, kinase domain; also called MKK7_KD; source: recombinant, obtained as His-fusion protein as previously reported
T1 sequence (looked up): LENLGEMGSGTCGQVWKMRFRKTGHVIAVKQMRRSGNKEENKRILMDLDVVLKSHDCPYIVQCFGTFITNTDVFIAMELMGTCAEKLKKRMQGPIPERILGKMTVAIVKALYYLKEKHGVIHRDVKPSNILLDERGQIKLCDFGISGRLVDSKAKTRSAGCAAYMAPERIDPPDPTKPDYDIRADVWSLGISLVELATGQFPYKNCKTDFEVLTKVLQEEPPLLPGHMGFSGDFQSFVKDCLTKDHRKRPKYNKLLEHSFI

[3] = biological target: the molecule itself; assay: SEC-MALS; SEC-LS, Superdex S200 10/30 with miniDAWN TREOS; 0.5-1.0 mg loaded; 20 mM Tris-HCl pH 7.5, 100 mM NaCl, 5 mM DTT, 5% glycerol (the results and the legend name only 5 mM DTT in 20 mM Tris-HCl pH 7.5); oligomeric state of the native protein

For GADD45β (from UniProt O75293), the Kd [1] is given as 6 nM.

B1: GADD45β (growth arrest and DNA damage-inducible 45 beta) (natural protein, human, UniProt O75293 1-160, looked up)
chain: MTLEELVACDNAAQKMQTVTAAVEELLVAAQRQDRLTVGVYESAKLMNVDPDSVVLCLLAIDEEEEDDIALQIHFTLIQSFCCDNDINIVRVSGMQRLAQLLGEPAETQGTTEARDLHCLLVTNPHTDAWKSHGLVEVASYCEESRGNNQWVPYISLQER
modifications: biotin (EZ-Link Sulfo-NHS-LC-Biotinylation Kit), in the BLI experiment only
notes: GADD45β, human; cloned into pET-28a+ as previously reported; Monomeric by SEC-LS; The same construct was used without biotin in SEC-LS and biotinylated in BLI; also called Human GADD45β; source: E. coli BL21(DE3), purified (Ni2+-NTA, Superdex 200 SEC)
In the case of B1, the Kd [2] is reported as 2 nM.

B2: GADD45γ (growth arrest and DNA damage-inducible 45 gamma) (natural protein, human, UniProt O95257 1-159, looked up)
chain: MTLEEVRGQDTVPESTARMQGAGKALHELLLSAQRQGCLTAGVYESAKVLNVDPDNVTFCVLAAGEEDEGDIALQIHFTLIQAFCCENDIDIVRVGDVQRLAAIVGAGEEAGAPGDLHCILISNPNEDAWKDPALEKLSLFCEESRSVNDWVPSITLPE
modifications: biotin (EZ-Link Sulfo-NHS-LC-Biotinylation Kit), in the BLI experiment only
notes: GADD45γ, human; gene purchased from Sigma Aldrich, cloned into pETM-13 with BamHI and XhoI; Dimeric by SEC-LS; The same construct was used without biotin in SEC-LS and biotinylated in BLI; source: E. coli BL21(DE3), purified (Ni2+-NTA, Superdex 200 SEC)
For B2, the “stoichiometry N” value [3] was 2.

— article PMC8509203, “Members of the GADD45 Protein Family Show Distinct Propensities to form Toxic Amyloid-Like Aggregates in Physiological Conditions” (International Journal of Molecular Sciences, 2021)
